Laboratory results taken from PMC4381594, “GCN5 inhibits XBP-1S-mediated transcription by antagonizing PCAF action” (Oncotarget, 2014).

Tests used:
[1] = biological target: T1, XBP-1S, the active isoform of X-box binding protein 1 (human, UniProt P17861-2 1-376); assay: cell-based or functional assay
T1 sequence (looked up): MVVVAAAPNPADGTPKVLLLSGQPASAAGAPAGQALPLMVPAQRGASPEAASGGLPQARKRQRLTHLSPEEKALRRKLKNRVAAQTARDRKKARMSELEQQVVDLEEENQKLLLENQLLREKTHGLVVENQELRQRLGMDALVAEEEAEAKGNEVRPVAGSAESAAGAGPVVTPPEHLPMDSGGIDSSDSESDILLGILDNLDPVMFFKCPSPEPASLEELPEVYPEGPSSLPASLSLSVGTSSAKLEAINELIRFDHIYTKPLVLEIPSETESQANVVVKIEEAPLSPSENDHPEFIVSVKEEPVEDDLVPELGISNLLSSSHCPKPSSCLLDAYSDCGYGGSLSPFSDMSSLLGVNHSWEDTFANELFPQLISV

[2] = biological target: T1, XBP-1S, the active isoform of X-box …; assay: co-IP; 293T cells co-transfected with PCAF and XBP-1S vectors with or without a GCN5 plasmid; IP with anti-XBP-1 antibody, immunoblot with anti-PCAF or anti-XBP-1; bands quantified by densitometry, PCAF normalised to precipitated XBP-1S; settings: partners not purified

fold decrease in XBP-1S-mediated luciferase expression from the 5×UPRE-Luc reporter in HEK293 cells with GCN5 overexpressed [1]: > 5 fold | fold decrease of PCAF-XBP-1S binding with GCN5 overexpressed [2]: 4 fold
B1: general control nonderepressible 5 (GCN5) (enzyme, human, UniProt Q92830 1-837, looked up)
chain: MAEPSQAPTPAPAAQPRPLQSPAPAPTPTPAPSPASAPIPTPTPAPAPAPAAAPAGSTGTGGPGVGSGGAGSGGDPARPGLSQQQRASQRKAQVRGLPRAKKLEKLGVFSACKANETCKCNGWKNPKPPTAPRMDLQQPAANLSELCRSCEHPLADHVSHLENVSEDEINRLLGMVVDVENLFMSVHKEEDTDTKQVYFYLFKLLRKCILQMTRPVVEGSLGSPPFEKPNIEQGVLNFVQYKFSHLAPRERQTMFELSKMFLLCLNYWKLETPAQFRQRSQAEDVATYKVNYTRWLCYCHVPQSCDSLPRYETTHVFGRSLLRSIFTVTRRQLLEKFRVEKDKLVPEKRTLILTHFPKFLSMLEEEIYGANSPIWESGFTMPPSEGTQLVPRPASVSAAVVPSTPIFSPSMGGGSNSSLSLDSAGAEPMPGEKRTLPENLTLEDAKRLRVMGDIPMELVNEVMLTITDPAAMLGPETSLLSANAARDETARLEERRGIIEFHVIGNSLTPKANRRVLLWLVGLQNVFSHQLPRMPKEYIARLVFDPKHKTLALIKDGRVIGGICFRMFPTQGFTEIVFCAVTSNEQVKGYGTHLMNHLKEYHIKHNILYFLTYADEYAIGYFKKQGFSKDIKVPKSRYLGYIKDYEGATLMECELNPRIPYTELSHIIKKQKEIIKKLIERKQAQIRKVYPGLSCFKEGVRQIPVESVPGIRETGWKPLGKEKGKELKDPDQLYTTLKNLLAQIKSHPSAWPFMEPVKKSEAPDYYEVIRFPIDLKTMTERLRSRYYVTRKLFVADLQRVIANCREYNPPDSEYCRCASALEKFFYFKLKEGGLIDK
notes: No tag is named for this plasmid; precipitated and detected with anti-GCN5 (ab71965); also called GCN5 WT; source: 293T, transfected, in lysate
